Results on six substances are retold here after WO2006085967A2.

Experiment [1] has as its target extracellular region of human F158 FcγRIIIa with C-terminal 6x His-tag and GST-tag (human) (UniProt P08637). Nature of the experiment: SPR (Table 3, not reproduced); receptor immobilized, antibody flowed.
Experiment [2] has as its target T1, extracellular region of human FcγRIIIa, allotype not stated where cited (His/GST-tagged) (human) (UniProt P08637). Nature of the experiment: AlphaScreen, Figure 15; fold vs WT for FcγRIIIa divided by fold vs WT for FcγRIIb. For orientation: In Alpha technology, singlet oxygen from a donor bead excites a nearby acceptor bead.
In experiment [3] the target is T1, extracellular region of human FcγRIIIa, allotype not given (His/GST-tagged) (human). Nature of the experiment: AlphaScreen competition, Figure 15.
Experiment [4] concerns the target human FcγRIIIa on PBMCs expressing heterozygous V158/F158 FcγRIIIa (human) (UniProt P08637). Nature of the experiment: cell-based or functional assay.
The target in experiment [5] is extracellular region of human V158 FcγRIIIa with C-terminal 6x His-tag and GST-tag (human) (UniProt P08637). Nature of the experiment: SPR (Table 3, not reproduced); receptor immobilized, antibody flowed.
For experiment [6], the target named is extracellular region of human F158 FcγRIIIa with C-terminal 6x His-tag and GST-tag (human) (UniProt P08637). Nature of the experiment: SPR; receptor immobilized, antibody flowed. For orientation: Surface plasmon resonance follows binding to a sensor surface in real time, without labels.
Sequence of extracellular region of human F158 FcγRIIIa with C-terminal 6x His-tag and GST-tag (human) (P08637 17-208): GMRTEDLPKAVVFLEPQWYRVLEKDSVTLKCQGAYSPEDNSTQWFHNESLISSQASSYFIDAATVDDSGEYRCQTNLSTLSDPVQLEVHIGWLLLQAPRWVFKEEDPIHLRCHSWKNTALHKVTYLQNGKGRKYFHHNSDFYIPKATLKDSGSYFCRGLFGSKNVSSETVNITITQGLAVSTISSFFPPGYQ

T1 sequence (P08637 17-208): as above
Sequence of human FcγRIIIa on PBMCs expressing heterozygous V158/F158 FcγRIIIa (human) (P08637 17-254): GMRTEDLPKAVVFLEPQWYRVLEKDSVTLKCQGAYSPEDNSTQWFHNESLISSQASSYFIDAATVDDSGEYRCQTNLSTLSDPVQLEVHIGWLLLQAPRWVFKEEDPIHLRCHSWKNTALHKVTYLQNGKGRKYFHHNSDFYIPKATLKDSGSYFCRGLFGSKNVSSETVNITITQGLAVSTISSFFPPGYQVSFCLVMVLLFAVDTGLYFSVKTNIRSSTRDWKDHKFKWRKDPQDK
Sequence of extracellular region of human V158 FcγRIIIa with C-terminal 6x His-tag and GST-tag (human) (P08637 17-208 F176V): as the sequence (P08637 17-208) above, with F160V counted along it

Substance I332E alemtuzumab (antibody) yielded a fold improvement over WT in experiment [1] of 10.1 fold.
Take “S239D/A330L/I332E Fc variant antibody (Figure 15; antibody context not stated)”: the FcγRIIIa-fold:FcγRIIb-fold ratio in experiment [2] worked out at 18. In experiment [3], the FcγRIIIa-fold (fold affinity relative to WT) was 139 fold.
In turn, “S239D/I332E Fc variant antibody (Figure 15; antibody context not stated)” showed a FcγRIIIa-fold (fold affinity relative to WT) in experiment [3] of 192 fold.
For S239D/I332E alemtuzumab (antibody), in experiment [4], the ADCC log(EC50), DoHH-2 target cells amounted to 0.49 and the fold enhancement in ADCC over WT alemtuzumab is 3.3 fold.
Turning to “S298A/E333A/K334A alemtuzumab (antibody)”, the figures for the fold improvement over WT in experiment [1] and in experiment [5] were 4.7 fold and 1.7 fold, respectively.
For V264I/I332E alemtuzumab (antibody), the equilibrium dissociation constant (Kd) (as a rule, the constant that tells how readily two partners part at equilibrium) in experiment [6] came to 52 nM. Further, in experiment [4], the ADCC log(EC50), DoHH-2 target cells worked out at 0.6 and the fold enhancement in ADCC over WT alemtuzumab worked out at 2.5 fold. In experiment [1], this substance displayed a fold improvement over WT of 14 fold. The fold improvement over WT in experiment [5] turned out to be 4 fold.
